For orientation: EC50 means the concentration giving half of the maximal effect.

Consider 14 molecules from US20160052996A1.

Experiment [1] has as its target BKV VP1 VLP (BK virus (BKV), AS strain) (UniProt P14996). The experiment in a line: direct ELISA. A general note: ELISA stands for enzyme-linked immunosorbent assay.
In experiment [2] the target is BKV VP1 (BK virus (BKV), AS strain) (UniProt P14996). The experiment in a line: direct ELISA.
For experiment [3] the target is unchanged. The experiment in a line: direct ELISA, plate coated with antigen at 5 µg/ml in carbonate buffer; EC50 by non-linear regression (GraphPad Prism).
The target of experiment [4] is BKV VP1 VLP (BK virus (BKV), AS strain) (UniProt P14996). The experiment in a line: direct ELISA, plate coated with antigen at 5 µg/ml in reassociation buffer (VLP); EC50 by non-linear regression (GraphPad Prism).
In experiment [5] the target is JCV VP1 VLP (JC virus (JCV), Mad-1 strain) (UniProt P03089). The experiment in a line: direct ELISA.
Sequence of JCV VP1 VLP (JC virus (JCV), Mad-1 strain) (P03089 whole entry): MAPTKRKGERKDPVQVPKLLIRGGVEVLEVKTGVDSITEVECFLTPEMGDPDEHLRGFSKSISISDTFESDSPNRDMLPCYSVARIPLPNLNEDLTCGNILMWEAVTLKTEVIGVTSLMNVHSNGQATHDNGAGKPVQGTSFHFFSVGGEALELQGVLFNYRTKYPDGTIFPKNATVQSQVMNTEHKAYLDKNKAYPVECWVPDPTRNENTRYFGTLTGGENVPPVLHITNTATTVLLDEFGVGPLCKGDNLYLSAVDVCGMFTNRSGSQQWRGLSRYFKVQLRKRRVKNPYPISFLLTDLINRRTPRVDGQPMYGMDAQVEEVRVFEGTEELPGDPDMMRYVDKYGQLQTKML

Sequence of BKV VP1 VLP (BK virus (BKV), AS strain) (P14996 whole entry): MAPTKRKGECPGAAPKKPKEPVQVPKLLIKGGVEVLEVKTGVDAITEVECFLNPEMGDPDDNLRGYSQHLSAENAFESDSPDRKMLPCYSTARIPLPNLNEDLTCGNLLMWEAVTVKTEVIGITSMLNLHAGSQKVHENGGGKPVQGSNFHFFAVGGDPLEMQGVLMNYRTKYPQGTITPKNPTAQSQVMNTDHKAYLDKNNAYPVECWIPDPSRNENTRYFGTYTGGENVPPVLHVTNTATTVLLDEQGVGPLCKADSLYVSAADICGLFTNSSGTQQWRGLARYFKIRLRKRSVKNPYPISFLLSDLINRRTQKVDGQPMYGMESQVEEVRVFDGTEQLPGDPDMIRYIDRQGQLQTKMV
Sequence of BKV VP1 (BK virus (BKV), AS strain) (P14996 whole entry): as above

B1: NI-307.57D5 (antibody, V domains shown)
VH: EVQLVESGGGLAQPGGSLRLSCAGSGFTLSDFAMSWVRRAPGKGLEWVSSLTPSGRNSFYSDSVKGRFTISRDNWKNTLYLEMNLLRPEDTAVYYCARPGAPKNSDSKYSYVRVDFQHWGQGTLVTVSS
VL: NFMLTQPHSVSESPGRTVTISCTRSSGSIANNFVQWYQHRPGSAPTTLIYEDDQRPSGVPDRFSGSVDSFSNSASLTISGLKTEDEADYFCQSYDNHNWVFGGGTTLTVL
Regarding B1, the concentration for a half-maximal effect (EC50) is 104 nM in experiment [1] and 37.5 nM in experiment [2].

B2: NI-307.43E8 (antibody, V domains shown)
VH: EVQLVESGGDVVQPGRSLRLSCAASGFAFSIYAMNWVRQAPGKGLEWVALISTSGTEHYADSVKGRFTISRDNSKNTLFLQINSLRVEDTAVYYCARDLDSTGYYENNYWGQGTLVTVSS
VL: DVVMTQSPLSSPVSLGQPASISCRSSHSLVHSNGDTYLSWLQQRPGQPPRLLIYKISNRFSGVPDRFSGSGAGTDFTLKISRVEAEDVGVYFCMQATSFPRTFGQGTKVEIK
As to B2, the concentration for a half-maximal effect (EC50) amounted to 0.34 nM in experiment [3] and 0.38 nM in experiment [4].

B3: NI-307.26E10 (antibody, V domains shown)
VH: EVQLVESGGGLVLPGGSLRLSCAVSGFTVRNEYMRWARQAPGRGLEWVSVIYRDGQTHHADTVKGRFDVSKDTSKNTMYLQMHNLRVDDTAIYYCARGHYGPWGQGTLVTVSS
VL: DIQMTQSPSTLPASVGDRVTITCRASQSINNWLAWYQQKPGKAPNLLIYDASNLETGVPSRFSGSGSGTEFTLTISSLQPDDFATYYCQQYNSHSHTWTFGQGTKVEIK
Turning to B3, the results for the concentration giving a half-maximal response (EC50) in experiment [1] and in experiment [2] were 0.74 nM and 1.35 nM, respectively.

B4: NI-307.5H3 (antibody, V domains shown)
VH: QVQLQESGPGLLKPLGTLSLICDVSGDSISSSNWWSWVRQSPRKGLEWIGEIYHSGRTNYNPSLTNRVTISVDKSKNQFSLNLNSVTAADTGVYYCARWDYYYNNDYYIRGFDIWGQGTMVTVSS
VL: EIVLTQSPGILSLSPGERATLSCRASQSVDSNYLAWYQQKPGQAPRLLIYSTSTRAAGVPDRFSGSGSGTDFALTISGLEPEDFAVYYCQQWGGSPPITFGQGTRLEIK
As to B4, the half-maximal effective concentration (EC50) was 0.288 nM in experiment [1] and 0.362 nM in experiment [2].

B5: NI-307.43A11 (antibody, V domains shown)
VH: QVQLQESGPGLVKPSGTLSLTCAVTGGSISSSNWWSWVRQSPGKGLEWIGEIHHDGNLNYNPLLKSRVSMSLDRSKNQFSLKLTSVTAADTAVYYCARWDFFFDSSYYIRGFDLWGQGTMVTVSS
VL: ETTLTQSPGTLSLSPGERVTLSCRASQSVDRNYLAWYQQKPGQSPRLLIYSASRRATGIPDRFSGSGSGTDFTLTISRLEPEDFVVYYCQQYGGSPPITFGQGTRLEIK
On to B5, for which the EC50 in experiment [1] was found to be 10 nM; in experiment [2] it was 9.7 nM.

B6: NI-307.25G10 (antibody, V domains shown)
VH: EVQLVESGGGLVQPGGSLRLSCVASGIIFKDYDFHWVRQVKEKGLEWVSAIGTAGDPYYAASVKGRFTVSRENGKNSVYLRMNNVGAGDTALYYCTSGNYFDRGSFRPSAFDMWGQGTMVTVSS
VL: EIVLTQSPGTLSLSPGERATLSCWASQSVSSNYLAWYQHKPGQAPRLLIFRASRRATDIPERFSAGGSGTDFTLTISRLEAEDSAVYYCQEYGSAPPASITFGQGTRLEIK
As for B6, the EC50 in experiment [1] came to 0.172 nM; in experiment [2] it was 0.514 nM.

B7: NI-307.24C6 (antibody, V domains shown)
VH: QLQLQESGPGLVKPSGTLSLICVVSGSSIRSNIWWWNWVRQSPGKGLEWIGEIYHSGSTNYSPSLKSRVTMSVDNSKNQFSLKMSSVTAADTAVYFCAINTRTSISGVLYDTFDVWGQGTMVTVSS
VL: EIVLTQSPATLSLSSGERATLSCRASQSVSGYLAWYQQKPGQAPRLLIYDGSNRATGIPARFSGSGSGTDFTLTISSLEPEDFAVYYCQHRSNWPMYTFGQGTKLEIK
For B7, the results for the half-maximal effective concentration (EC50) in experiment [1] and in experiment [2] were 0.396 nM and 0.816 nM, respectively.

B8: NI-307.3G4 (antibody, V domains shown)
VH: QVQLVQSGAELKKPGAAVKVSCQASGYNFLSYGINWVRQIPGQGLQWLGWISTYDGTMNYDQKPDNRVTVTTDTSSSTVYLELRGLRSDDTGVYYCVRDRCAGAGCSHSLGYWGQGTLVTVSS
VL: DIQMTQSPSALSASVGDRVTISCRASQNINTQLNWYQEKPGKAPELLIYGAFNLQSGAPSTFSGSGSGTDFTLTITSLQPEDFASYYCQQGFHAPYTFGRGTKVDIK
B8: the concentration giving a half-maximal response (EC50) was determined as 16.4 nM in experiment [1] and 27.4 nM in experiment [2].

B9: NI-307.1E1 (antibody, V domains shown)
VH: EVQLVESGGGLVKPGGSLRLSCAASGFIFSDAWMNWVRQAPGKGLEWVGHIKSRPAGGTTEYAAPVKGRFTISRDDSTDTLYLQMNNLKAEDTAVYYCSTGHYGVYGLGTLVTVSS
VL: DIQMTQSPSTLSASVGDRVTITCRASQSIRDYLAWYQQKPGKAPKLLIYDGSILEGGVPSRFSGSVSGTDFTLTISSLQSDDFATYYCQQYTSYSSWTFGQGTKVEIK
Take B9: the half-maximal effective concentration (EC50) came out at 11 nM in experiment [1], 281 nM in experiment [5] and 6.05 nM in experiment [2].

B10: NI-307.19F10 (antibody, V domains shown)
VH: EVQLVESGGGLVQPGGSVSLSCAASGFTFPVYWMHWVRQAPEKGLMWVSRISPDGTIVDYAGSVKGRFTVSRDNAKNILYLQIQRLTAEDTAVYFCTKDFDVASGFWGQGTLVTVSS
VL: QSALTQPPSASGSPGQSVTISCTGSKSDVGTCHFVSWYQQHPGKVPKLVIYEGNKRPSGVPDRFSASKSGNTASLTISGLQPGDEADYYCSTCAGPNNYVFGTGTKVTVL
Take B10: the figures for the half-maximal effective concentration (EC50) in experiment [1] and in experiment [2] were 1.1 nM and 2.41 nM, respectively.

B11: NI-307.18E12 (antibody, V domains shown)
VH: QVQLQQWGAGLLKPSETLSLTCAVYGDSFSGFFWAWIRQTPGTGLEWIGEIQHGGSPTYNPSFESRLTISTDASKSQVSLKMTSVTVTDTAIYYCARCIRGKYGSGSLQLWSQGTLVTVSS
VL: DIQLTQSPSFLSASVGDRVTITCRASQDINYHLAWYRQKPGKAPDLLIHSAHTLHIGVSSRFSGSGSGTEFTLTIHTLQPEDFATYYCHQPKTFPPTFGGGTKVDIK
Consider B11, for which the EC50 in experiment [3] was 61.5 nM; in experiment [4], 111 nM.

B12: NI-307.24F3 (antibody, V domains shown)
VH: QVQLQESGGGVVQPGRSLRLSCAASGFSFNRYGMHWVRQAPGKGLEWLAVISNDGVNTHYADSVKGRFTISRDNSKSTLYLQASSLRVEDTAVYYCAGYYYGSGTSLFFYWGQGTLVTVSS
VL: EIVLTQSPDSLAVSLGERATINCKSSQTVLYSSNNQNYLAWYQQKPGQPPKLLLYWASTRESGVPDRFSGSGSGTDFTLTISSLQPEDVAVYYCQQYYTAPYTFGQGTKVEIK
As to B12, the EC50 in experiment [1] was 28.8 nM; in experiment [2] it was 1.04 nM.

B13: NI-307.78C3 (antibody, V domains shown)
VH: QVQLQESGPGLVKPSGTLSLTCTVSGGSISGRIWWSWVRQPPGKGLEWIGEIYHSGSTNYSPSLRGRVTISVDTSKQHFSLKMTSVTAADTAMYYCVRGELALGFDSWGQGTLVTVSS
VL: QSALTQPPSASGSPGQSVTISCTGTSSDVGGYNSVSWYQQHPRRAPKLMIYEVSKRPSGVPDRFSGSKSGNTASLTVSGLQADDEAHYYCSSYAGSNNLVFGGGTMLTVL
For the molecule B13, the concentration for a half-maximal effect (EC50) in experiment [1] was found to be 0.939 nM; in experiment [2], 1.96 nM.

B14: NI-307.6A2 (antibody, V domains shown)
VH: QVQLQESGPGLVKPSETLSLTCAVSGGSVSSSYWYSWVRQLPGKGLEWIGEIFHTGDTNYNPSLESRVTISIDTSKNQLSLDVTSATAADTAVYYCARDYCTDSGCDSDALDVWGHGTMVTVSS
VL: QSALTQPASVSGSPGQSITISCTGTTKDVGNYNLVSWYQQHPGKAPRLVIYEVSERPSGVSNRFSGSKSGNTASLTISGLQAEDEADYHCCSYAGSGTSVFGGGTKVTVL
With B14, the values for the concentration for a half-maximal effect (EC50) in experiment [1] and in experiment [2] were 1.17 nM and 1.79 nM, respectively.
